Results as given in the supplement of paper PMC9170038.

Tested on: MS2 coat protein
Experiment: apparent KD of MS2 coat protein; higher = weaker reporter binding
Conditions: Eterna round: R107
Protocol: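 RNA-MaP round R107: designed RNA switches with theophylline, tryptophan, arginine or FMN aptamers are transcribed on-chip within common flanks. They are titrated with SNAP-549-labelled MS2 coat protein in RNA-MaP buffer (100 mM Tris pH 7.5, 80 mM KCl, 4 mM MgCl2), without ligand or with the indicated ligand. Median apparent KD per design.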

[1] = input ligand: theophylline 20 uM
[2] = input ligand: theophylline 2 mM
[3] = input ligand: tryptophan 2.4 mM

Sequence | apparent KD of MS2 coat protein (input ligand: arginine 13.2 mM) | apparent KD of MS2 coat protein (input ligand: none) | apparent KD of MS2 coat protein [1] | apparent KD of MS2 coat protein [2] | apparent KD of MS2 coat protein [3]
AGUAGUUGACAAAAGUCAGCUACAAUUGAAGGAGCGGGAUCCUUCCCAGGUAGGUCGCAAUAACAUGAGGAUCACCCAUGUCAAA [ArgAS 4 #BothOrNeither #OpenEnded] | 0.0159 µM | 0.0277 µM | 0.0266 µM | 0.0204 µM | 0.0203 µM
ACCGGCACCUAGGAUACCAGAUCCACAACAAACAUGAGGAUCACCCAUGUAUAAAGUGGUAUCCCUUGGCAGCCUGUGACAAUCG [theeternabot_sameState_MS2_Theo_B_19] | 0.017 µM |  | 0.0214 µM |  | 0.0158 µM
UCGCUCUGGGUGAGAUCCGGAGAUAUGGAAGGAGCGCUGAUGCCAGCAGGUAGGUCGCCAACGGACAUGAGGAUCACCCAUGUAC [Same State - Arginine A (Freestyle 10)] | 0.025 µM | 0.0524 µM | 0.0642 µM | 0.0345 µM | 0.0398 µM
AGUCACUCGAGGUGAUCUGACGAGUGGCAACGAGGACCGGUACGGCCGCCACUCGAAUAAACAUGAGGAUCACCCAUGUACAAAU [T''-M'-T'-T-MS2 - Design 11] | 0.054 µM |  | 0.216 µM | 0.626 µM | 
ACAUGAGGAUCACCCAUGUCAGGGCACGAUACCAGCUGAUCCGGUGGCCCUUGGCAGCGUGACGAGUGGUCAUGAGGAUCACACG [?fmullin] | 0.0757 µM | 0.128 µM | 0.176 µM | 0.158 µM | 0.13 µM
GGUAGCAGGACUGAUACCAGUCCAGCGAAUCAUACGACGCAACAUGAGGAUCACCCAUGUGACCCUUGGCAGCAGACUGCUACCG [Same State Theophylline B GF 28] | 0.0294 µM |  | 0.0248 µM |  | 0.0267 µM
AAAAGUAGGUCCAAUAAAACUACAUGUGAAGGAGCGCCCGAAAGGGCAGGUAGGUCGCACAUGAGGAUCACCCAUGUCCUACAAA [ArgEX 7 #OpenEnded] | 0.0501 µM | 0.0861 µM | 0.103 µM | 0.0861 µM | 0.0718 µM
AACAUGAGGAUCACCCAUGUACCUUUCGAUCGAGGACCGGUACGGCCGCCACUCGAAAACAUGAGGAUCACCCAUGUUCAACAGG [Tryp A SS t3] | 0.0587 µM |  | 0.128 µM | 0.154 µM | 
GCGAUGGAGCGAAGGAGCGUGCUGGUACAUGAGGAUCACCCAUGUGAACCGCAGCGCUAAGCACAGGUAGGUCGCGCUCCAUCGC [EAB NP+V+V2 #14] | 0.102 µM | 0.0288 µM | 0.0284 µM | 0.023 µM | 0.0419 µM
UCAGCACAUGAGGAUCACCCAUGUCGUGAUACCAGCCUGUGCGAAGGCCCUUGGCAGCACAGUCCCGAUUUGCUUAUAUGCACUU [theeternabot_sameState_MS2_Theo_A_48] | 0.0324 µM |  | 0.061 µM |  | 0.0344 µM
CACAUGAGGAUCACCCAUGUGUAAUAUGAAGGAGCGUCGGAAAUGACAGGUAGGUCGCAUGAAAUGCAAGUGUGUGAGGUUGUGA [EAA NP+V+V2 #12] | 0.00917 µM | 0.01 µM | 0.0177 µM | 0.0105 µM | 0.0109 µM
AUAUAUACAUGAGGAUCACCCAUGUUAUUUCGAGGACCGGUACGGCCGCCACUCGAUAGAGUGGAAGUAACAUUUGUUAGAUGAU [JR_SSTryptoA_Sub013] | 0.0128 µM |  | 0.017 µM | 0.0163 µM | 
GGAUAGGACACGGCCGCCACUAGCUAGGAUACUAGCAACAUUUCCUCGCUUGAGGAUCACCCAAGUAGGACCGGGUGUCCUAUCG | 0.302 µM | 0.56 µM | 0.446 µM | 0.476 µM | 0.482 µM
GGGCCCGGCCGAAAGGCCGGGCCCGCUGAAGGAGCGGGAAAUAACCCAGGUAGGUCGCAGAGAUCCACAUGAGGAUCACCCAUGU [#26 Exclusion - Arginine A] | 0.0387 µM | 0.0265 µM | 0.0641 µM | 0.0681 µM | 0.0444 µM
UUUUUCGUAGGUUAAAGUUUAGAAACUGAAGGAGCGUGGUAAUACACAGGUAGGUCGCAGAUUUUACAUGAGGAUCACCCAUGUU [JR_ExcArginiA_Sub012] | 0.0269 µM | 0.0245 µM | 0.0207 µM | 0.0262 µM | 0.0211 µM
GCUAGGUCAUCGGCCGCCACUAACGACGGUUCGAACAUGAGGAUCACCCAUGUGCCACAUGCGCAUAGGACCGGGAUGACCUAGC [SSTB NP+V+V2 #6] | 0.0357 µM | 0.0195 µM | 0.0243 µM | 0.0212 µM | 0.0117 µM
AAUAAUAAGGCGGCCGCCACUACACAUGAGGAUCACCCAUGUCUCGCGGGCUUGCGUUGGGAUUGUAGGACCGGGCCAAUAAUAA [Exclusion - Tryptophan B (Freestyle 11)] | 0.0152 µM |  | 0.0357 µM | 0.0304 µM | 
